Broadly, the stoichiometry N is a count of units in the complex or per binding partner.

Data on two proteins can be found in article doi:10.1101/2022.02.15.480489 (bioRxiv, 2022).

The series deals with the molecule itself. Kind of series: fluorescence correlation spectroscopy.

B1: Ana2-mNG (Ana2 tagged with monomeric NeonGreen at the C-terminus, CRISPR/Cas9 knock-in at the endogenous locus) (natural protein)
chain: MFVPETEDMLPRLAPRPSAAVPMGHTNEIIGPTVPEVSILFGQPPQDPQMQPQQPNHAHQESSPRAAPTFASWKKQMLPRVNFSPILATELGPRTAPSSNSPCSSKEYQVMPRDRNYASDAQQTTNHMNCNAGGYNAEPKQQAYQSRRLSSSSNADVLTICAGTQTDPFNPSPPRKSLPQVVYSDIDVSNLANKSDLAALVSLVESVRHEQQQLRNLCEMILEQQQRAKPEAISKASSTTGTQCDILTTNQAGRRLSPIMQDYIAEEEEPLPPPQARVIPQFPSPRPHPPIAQSTGYRANTPQAKRIPQLAKPNTEKSMVMNELALKYLRQPVDELMKDMRLGASPKSPNPEPLRPIDNIGHAQSPNDISNASYKYLKKYRLLPEEQLEPVCPQSPMAATAPSPHIQLDLENIRNQPKLL
For B1, the “stoichiometry N” value was around 2.

B2: mNG-Ana2 (Ana2 tagged with monomeric NeonGreen at the N-terminus, CRISPR/Cas9 knock-in at the endogenous locus) (natural protein)
chain: B1 chain
As for B2, the “stoichiometry N” value is around 2.
